Assay results as given in the supplement of paper PMC7125110.
± gives the standard error. This sample holds only a part of the variants without activity.

B1: glmS ribozyme (parent)
chain: AUAAAAGCGCCAGAACUACAGAAAUGUAGUUGACGAGGAGGAGGUUUAUCGAAUUUUCGGCGGAUGCCUCCAAA

Variants of: B1
Assay: self-cleavage kobs at 10000 uM GlcN6P; higher = faster cleavage; RNA array
Conditions: with glucosamine-6-phosphate
Summary of the method: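 The measurements used barcoded ribozyme variants on sequenced MiSeq chips, transcribed in situ by E. coli RNA polymerase and tracked at 37 °C with a hybridised Cy3 probe. Glucosamine-6-phosphate, 40 μM to 10 mM in HEPES/KCl/Mg(OAc)2 buffer, was flowed in while tiles were imaged over ~14 h. Baseline-normalised signals, also normalised to non-cleaving reference variants, gave per-tile medians that were fit to one- or two-exponential decays for kobs. kcat and KM resulted from weighted Michaelis–Menten fits across concentrations.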

Variant | self-cleavage kobs at 10000 uM GlcN6P [s⁻¹]
AUAAAAUCGCCAGAACUACAGAAAUGUAGUUGAGGAGGAGGAGGUUUAUCGAAUUUUCCGCGGAUGCCUCCAAA | < 1e-05
AUAAAAGCGCCAGAACUACAGAAAUGUAGUUGACGUGGAGGAUGUUUAUCGAAUUUUCGGCGCAUGCCUCCAAA | < 1e-05
AUAAAAGCGCCAGAAUUACAGAAAUGUAGGUGACGAGGAGGAGGUUUAUCGAAUUUUCCGCGGAUGCCUCCAAA | < 1e-05
AUAAAAACGCCAGGACUACAGAAAUGUAGUUGACGAGGGGGAGGUUUAUCGAAUUUUCGGCGGAUGCCUCUAAA | 5.55e-05 ± 1.7e-05
AUAAAAGCGCCAGAACUACAGAAAUGUAGUUGACGAGGAAGAGGUUUAUCGAAUUUUCGGCGGAUGCCCCCAAA | 5.59e-05 ± 1.9e-05
AUAAAAGCGCCAGAACUACAGAAAUGUAGUUGACGAGGGGGAGGUUUAUCGCAUUUUCGGCGGAUGCCUCCAAA | 2.99e-05 ± 1.2e-05
AUAAAAGCGUCAGAAGUACAGAAAUGUAGUUGACGAGGAGGAGGUUUAUCGAAUUUUCGGAGGAUGCCUCUAAA | < 1e-05
AUAAAAGCGCCAGAAUUACAGAAAUGUAGUUGACGAGGGUGAGGUUUAUCGAAUUUUCGGCGGAUGCCUCCAAA | 0.0008 ± 0.00026
AUAAAAGCGCCAGAGUUACAGAAAUGUACUUGACGAGGAGGAGGUUUAUCGAAUUUUCGGCGGAUGCCUCCAAA | 0.00377 ± 0.00075
AUAAAAGCGCCAGAACUACAGAAAUGUAGUUGACGAUGAGGAGGUUUAUCGAAUUUUGGGCGUAUGCCUCCAAA | < 1e-05
AUAAAAGGGCCAGAACUACAGAAAUGUAGUUGUCGAGGAGGAGGUUUAUCGAAUUAUCGGCGGAUGCCUCCAAA | < 1e-05
AUAAACGCGCCAGAACUACAGAAAUGUAAUUGAUGAGGAGGAUUUUUAUCGAAUUUUCGGCGGAUGCCUCCAAA | < 1e-05
AUAAAAGCGCCAGAACUACAGAAAUUUAGGUGACGAGGAGGAGGUUUAUCGAAUUUUCGGCGGAUGCCUCUAAA | 0.000403 ± 6.4e-05
AUAAAAGCGCCAGAACUACAGAAAUGUAGUUGACGAGGAAGAGGUUUAUCGAGUUUUCGGCGGAUGCCUCGAAA | 0.00453 ± 0.001
AUAAAAGCGCCAGAACUAAAGAAAUGUAGUUGACCAGGAGGAGGUUCAGCUAAUUUUCGGCGGAUGCUUCUAAA | < 1e-05
AUAAAAGCGCCAGAACUACAGAAAUGUAGCUCACGAGGAGGAGGUUGAUGGAUUUUUCGGCGGGUGCAUACAAA | 0.000334 ± 8.3e-05
AUAAAAGCGCCACAACUACAGAAAUGUAGUUGGCGAGGAGUAGGUUUAUCGAAUUUUCGGCGGAUGCCUCCAAA | < 1e-05
AUAAAAGCGCCAGAACUACAGAAAUGUAGCUAACGAGGAGGAGGUUUAUCGAAUUUUCGGCGGAUGCCUGCAAA | 7.6e-05 ± 1.7e-05
AUAAAAACGGCAGAACUAAAGAAAUGUAGUUGACGAGGAGGAGGUUAAUCAAAUUUUCGGCGGAUGCCUCCAAA | < 1e-05

Variant | self-cleavage kobs at 10000 uM GlcN6P [s⁻¹]
AUAAAAGCGCUAGAACUACAGAAAUGUAGUUGACGAGGAGGAGGUUUAUGGAAUUUUCGGCGGAUGCCUGCAAA | 3.88e-05 ± 1.4e-05
AUAAAAGCGCACGAACUACAGAAAUGUAGUUGACGAGGAGGAGGUUUAUCGAAUUUGCGGCGGAUGGCUCCAAA | 3.81e-05 ± 1.5e-05
AUAAAAGCGCCAUAACUACAGAAAUGUAGUUGACGAGGAGGAGGUUUAUCGAAUUUUUGGCGGAUGCCUCCAAA | 6.77e-05 ± 6.2e-06
AUAAAAGCGCCAAAACUACAGAAAUGUAGUUGACGAGGAGGAGGUUUAUCGAAUUUGCGGCGGAUGCCUUCAAA | 3.53e-05 ± 1.7e-05
AUAAAAGCGCCAGAUCUACAGAAAUGUAGUUGACGAGGAGGUGGUUUAUCGAAUUUUCGGCGGAUGACUCCAAA | 0.000127 ± 3.2e-05
AUAAAAGCGCCUGAACUACAGAAAUGUACUUGACGAGGAGAAGGUUUAUCGAAUUUUCGGCGGAUGCCUCCAAA | 0.000129 ± 4.9e-05
AUAAAAGCGCCCGAACUACAGAAAUGUAGUUGACGAGGAGAAGGUGUAUCGAAUUUUCGGCGGAUGCCUCCAAA | 0.000334 ± 7.8e-05
AUAAAAGCGCCAGAACUACAGAAAUGUAGUUGACGAGGAGCAGGUUUAUCGAAUUUUCGGCGGAUCCAUCCAAA | < 1e-05
AUAAAAGCGCCAGAACUACAGAAAUGUAGUUGACGAAGAGUAGGUUUAUCGAAUUUUCCGCGGAUUCCUCCAAA | < 1e-05
AUAAAAGCCCCAGAACUACAGAAAUGUAGUUGAAGAGGAGGAGGUUUAUCGAAUCUUCGGCGGAUGCCUCCAAA | < 1e-05
AUAAAAGUGCCAGAACUACAGAAAUGUAGUUAACGAGGAGGAGGUUUUUCGAUUAUUCGGCGGAUGCCUCCAAA | < 1e-05
AUAAAAGCGCCAGCACUACAGAAAUGUAGUUGACGAGGAGGAGGUUUAUCGUCUUUUCGGCGGAUGCCUCCAAA | < 1e-05
AUAAAAGCGCCAGAACUACAGAAAUUUAGUUGACGAGGAGGAGGUUUAUCGACUUUUCGGCGGAUGCCUCCAAA | 0.00559 ± 0.0013
AUAAAAGCGCCCGAACUACAGAAAUGUACUUGACGAGGAGGACGUUUAUCGAAUUUUCGGCGGAUGCCUCCAAA | < 1e-05
AUAAAAGCGCCAGAACUACAGAAAUUUAGUUGACGAGGAGGAGGUUUAUCGAGUUUUCGGCGGAUGCCGCCAAA | 5.41e-05 ± 1.5e-05
AUAAAAGCGCCAGAACUACAGAAAUGUAGUUGACGAGGAAGAGGAUUAUCGAAUUUUCGGCGGAUACCUCCAAA | 0.00649 ± 0.0018
AUAAAAGCACCAGAACUACAGAAAUGUAGUUGACGAGGAGGAGGUUUAUCGACUUUUCGGCAGAUGCCUGCAAA | < 1e-05
AUAAAAGCGCCACAACUACAGAAAUGUAGUCGACGAGGCGGAGGUUUAUCGAAUUUUCGGCGGAUGCCUCCAAA | 2.61e-05 ± 1.3e-05
